Reference: patent US20260144882A1 (BIO THERA SOLUTIONS, published 2026)
“And” between values parts separate entries of the source, which are not always exact repeats. Equal entries are not always repeated.

Legend:
[1] = biological target: T1, hNectin-1 (ACRO, PV1-H5223) (human, UniProt Q15223 31-334); assay: ELISA, coated antigen
T1 construct: bought; construct not described
T1 sequence (looked up): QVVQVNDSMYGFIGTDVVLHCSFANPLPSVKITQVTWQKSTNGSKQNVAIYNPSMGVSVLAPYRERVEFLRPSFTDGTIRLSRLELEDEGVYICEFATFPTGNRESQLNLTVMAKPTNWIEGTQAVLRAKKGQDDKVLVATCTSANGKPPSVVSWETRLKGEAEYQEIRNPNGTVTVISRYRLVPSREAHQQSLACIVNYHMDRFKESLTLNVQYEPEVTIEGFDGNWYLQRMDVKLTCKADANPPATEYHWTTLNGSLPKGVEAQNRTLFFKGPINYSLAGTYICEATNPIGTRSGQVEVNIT
From the text: (§1) The binding activity of the antibodies was detected by ELISA.
(§2) In this assay, the binding of different antibodies to human Nectin-4 homologous proteins hNectin-1 (ACRO, PV1-H5223), hNectin-2 (ACRO, PV2-H52E2), hNectin-3 (ACRO, PV3-H52E4), and hNectin-4-His was detected by ELISA to determine the specificity of the antibodies. For the methodology and procedures, see Example 4. Antigens of interest ([…]) were immobilized; after blocking, serially diluted antibodies (2-fold serially diluted from […]) were added, and HRP-labeled anti-human-Kappa secondary antibody was added for chromogenic reaction.

[2] = biological target: T2, hNectin-2 (ACRO, PV2-H52E2) (human, UniProt Q92692 32-360); assay: ELISA, coated antigen
T2 construct: bought; construct not described
T2 sequence (looked up): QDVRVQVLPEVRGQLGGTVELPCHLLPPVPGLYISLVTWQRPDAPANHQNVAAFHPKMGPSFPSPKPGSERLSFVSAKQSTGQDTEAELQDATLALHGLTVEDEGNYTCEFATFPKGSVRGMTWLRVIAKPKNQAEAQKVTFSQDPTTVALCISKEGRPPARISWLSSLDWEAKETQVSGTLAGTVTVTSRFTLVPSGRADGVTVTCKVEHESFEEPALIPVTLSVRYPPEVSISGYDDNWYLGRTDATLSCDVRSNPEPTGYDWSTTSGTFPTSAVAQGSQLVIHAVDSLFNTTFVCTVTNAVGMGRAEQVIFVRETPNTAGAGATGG
From the text: as §1, §2

[3] = biological target: T3, human Nectin-4 extracellular antigen hNectin-4-His (human, UniProt Q96NY8 32-349); assay: ELISA, coated antigen
T3 construct: C-terminal 8xHis tag included
T3 sequence: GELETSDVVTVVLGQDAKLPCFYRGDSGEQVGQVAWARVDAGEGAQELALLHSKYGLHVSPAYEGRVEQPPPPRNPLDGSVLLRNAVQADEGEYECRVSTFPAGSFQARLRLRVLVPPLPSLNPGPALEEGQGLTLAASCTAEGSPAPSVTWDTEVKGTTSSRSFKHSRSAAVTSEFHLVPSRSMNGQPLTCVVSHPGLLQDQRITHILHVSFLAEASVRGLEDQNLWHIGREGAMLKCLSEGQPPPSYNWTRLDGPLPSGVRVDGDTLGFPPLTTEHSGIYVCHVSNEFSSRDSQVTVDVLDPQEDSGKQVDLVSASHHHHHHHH
From the text: as §1, §2

[4] = biological target: T3, human Nectin-4 extracellular antigen …; assay: ELISA, coated hNectin-4-His
From the text: as §1

[5] = biological target: T3, human Nectin-4 extracellular antigen …; assay: ELISA, coated hNectin-4-His; remark: listed apart in the source
From the text: as §1

B1: antibody 1G8 (antibody, human IgG1, kappa, V domains shown)
VH: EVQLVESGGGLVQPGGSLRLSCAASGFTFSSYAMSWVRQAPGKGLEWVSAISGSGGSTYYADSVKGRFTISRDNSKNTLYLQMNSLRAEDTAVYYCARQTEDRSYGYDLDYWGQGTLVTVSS
VL: DIQMTQSPSSLSASVGDRVTITCRASQGISSYLAWYQQKPGKAPKLLIYAASSLQSGVPSRFSGSGSGTDFTLTISSLQPEDFATYYCQQHYTTPPTFGQGTKVEIKR
Question: Does B1 bind [1]?
Answer: no binding (tested: 2-fold serially diluted from 2 g/mL)

Question: Does B1 bind [2]?
Answer: no binding (tested: 2-fold serially diluted from 2 g/mL)

Question: What about the EC50 [3] of the same binder?
Answer: 0.041 mg/L

B2: antibody 10F4 (antibody, human IgG1, kappa, V domains shown)
VH: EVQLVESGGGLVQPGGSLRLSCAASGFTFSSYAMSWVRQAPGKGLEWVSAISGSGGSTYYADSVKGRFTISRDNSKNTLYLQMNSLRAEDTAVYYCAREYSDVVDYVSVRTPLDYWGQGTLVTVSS
VL: DIQMTQSPSSLSASVGDRVTITCRASQGISSYLAWYQQKPGKAPKLLIYAASSLQSGVPSRFSGSGSGTDFTLTISSLQPEDFATYYCQQHYTTPPTFGQGTKVEIKR
Question: What does the source list for B2?
Answer: EC50 [4]: 0.041 mg/L and 0.043 mg/L; binding result [1]: no binding (tested: 2-fold serially diluted from 2 g/mL); binding result [2]: no binding (tested: 2-fold serially diluted from 2 g/mL); EC50 [3]: 0.045 mg/L

B3: antibody 1F3 (antibody, human IgG1, kappa, V domains shown)
VH: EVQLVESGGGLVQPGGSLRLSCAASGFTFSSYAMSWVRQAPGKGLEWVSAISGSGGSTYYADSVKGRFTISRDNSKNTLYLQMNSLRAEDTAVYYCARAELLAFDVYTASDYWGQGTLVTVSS
VL: DIQMTQSPSSLSASVGDRVTITCRASQGISSYLAWYQQKPGKAPKLLIYAASSLQSGVPSRFSGSGSGTDFTLTISSLQPEDFATYYCQQHYTTPPTFGQGTKVEIKR
Question: How did the EC50 [5] turn out when B3 was run?
Answer: 0.005 mg/L

Question: Does B3 bind [1]?
Answer: no binding (tested: 2-fold serially diluted from 2 g/mL)

Question: Does B3 bind [2]?
Answer: no binding (tested: 2-fold serially diluted from 2 g/mL)

Question: What about the EC50 [3] of the same binder?
Answer: 0.04 mg/L
